Reference: patent publication US20200317776A1 (published 2020)

Legend:
[1] = target: T1, human TREM2 expressed on cells (human, UniProt Q9NZC2 19-230); assay: FACS, hTREM2 BW cells
T1 construct: BW5147.G.1.4 cells stably expressing human TREM2 together with Dap12, or endogenous TREM2 of primary human myeloid cells; also called huT2 BW; hTREM2 expressing cell line
T1 sequence: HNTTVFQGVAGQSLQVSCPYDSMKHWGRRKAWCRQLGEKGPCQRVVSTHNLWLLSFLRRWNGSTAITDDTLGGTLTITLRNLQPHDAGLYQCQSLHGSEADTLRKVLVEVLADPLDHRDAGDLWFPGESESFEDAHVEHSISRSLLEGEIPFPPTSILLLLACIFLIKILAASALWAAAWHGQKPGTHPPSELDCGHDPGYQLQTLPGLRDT

[2] = target: human TREM2/DAP12 fusion protein (human, UniProt O43914 41-113, limits assumed); assay: cell-based or functional assay
[3] = target: T1, human TREM2 expressed on cells; assay: cell-based or functional assay
mouse TREM2 = target: T2, mouse TREM2 (mouse, UniProt Q99NH8 19-227); assay: no effect on Dap12 phosphorylation in WT mice
T2 construct: Endogenous TREM2 of wild-type mice (peritoneal macrophages); also called murine TREM2
T2 sequence: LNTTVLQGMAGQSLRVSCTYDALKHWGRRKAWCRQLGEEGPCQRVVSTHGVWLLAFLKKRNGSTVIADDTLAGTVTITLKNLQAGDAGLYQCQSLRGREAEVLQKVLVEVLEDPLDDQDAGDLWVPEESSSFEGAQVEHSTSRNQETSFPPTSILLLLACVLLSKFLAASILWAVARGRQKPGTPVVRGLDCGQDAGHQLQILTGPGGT
Description: 8 week old C579116 (WT) Bac-TG-hTREM2 mice were injected i.p. with 3 ml of 3% thioglycollate. […] Immunoblots were probed with antibodies directed against human TREM2 (R&D #AF1828).
To test if AL2p variant antibodies induce TREM2 signal activation in vivo, WT or human TREM2 expressing Bac-Tg mice were treated with thioglycollate to recruit macrophages to the peritoneum. After three days, mice were injected with anti-TREM2 or control huIgG1 antibodies and subsequently, peritoneal macrophages were harvested, lysed and phosphorylation of Dap12 associated with TREM2 was probed as a measure of TREM2 signaling activation.

- Bmax (MFI) [1]: 196000 MFI
- Kd [1]: 0.63 nM
- Plate bound IgG, fold over unstimulated control (25 nM IgG) [2]: 9.88 fold
- Soluble IgG, EC50 [2]: 4.83 nM
- Soluble IgG, fold over control IgG (17 nM IgG) [2]: 9.97 fold
- binding result (mouse TREM2): no binding
B1: AL2p-58 huIgG1 (antibody)
heavy: not shown
light: DVVMTQSPDSLAVSLGERATINCRSSQSLVHSNRYTYLHWYQQKPGQSPKLLIYKVSNRFSGVPDRFSGSGSGTDFTLKISRVEAEDVGVYYCSQSTRVPYTFGQGTKLEIKRTVAAPSVFIFPPSDEQLKSGTASVVCLLNNFYPREAKVQWKVDNALQSGNSQESVTEQDSKDSTYSLSSTLTLSKADYEKHKVYACEVTHQGLSSPVTKSFNRGEC
notes: also called AL2p-58 huIgG1 WT
- EC50 viability, dendritic cells D558 [3]: 0.288 nM
- EC50 viability, dendritic cells D559 [3]: 0.341 nM
- EC50 viability, dendritic cells D560 [3]: 0.271 nM
- EC50 viability, macrophages D558 [3]: 0.005 nM
- EC50 viability, macrophages D559 [3]: 0.359 nM
- EC50 viability, macrophages D560 [3]: 0.469 nM
